According to patent publication US11447754B2, “In vitro methods of chemical conversion using non-stereospecific glutathione lyases” (WISCONSIN ALUMNI RESEARCH FOUNDATION, priority 2017, dated 2022):
Where a chain is given by its changes, count along the chain named. In names and notes the source's numbering stands.

Assays:
[1] = substrate: COc1cc(C(=O)[C@@H](CO)Oc2ccccc2OC)ccc1O; assay: Kinetics of the enzymatic cleavage of β(R)-MPHPV by BaeA (2:S14A/3:S15A); assay type: biochemical, Novosphingobium aromaticivorans; conditions: other: β(R)-MPHPV into GS-HPV, 24 nM dimeric enzyme, 5 mM GSH, pH 8.0, 25° C.
Protocol: To generate mutant […], pVP302K/2873-H2872(S14A) was amplified by kinase phosphorylated primers “Saro2873-S15A_R” and “Saro2873-S15A_F”. The linear fragment was circularized using T4 DNA ligase to generate plasmid pVP302K/2873(S15A)-H2872(S14A).
(§1) Expression and purification of recombinant enzymes. Recombinant proteins were expressed using the plasmids described above in E. coli B834 containing plasmid pRARE2 (Novagen) grown for ˜25 hours at 25° C. in ZYM-5052 Autoinduction Medium containing kanamycin and chloramphenicol. Recombinant proteins were purified using a Ni^2+-NTA column as described in Example 1 above, except using gravity-flow columns instead of an FPLC system. After removal of His8-tags using Tev protease, recombinant proteins retained a Ser-Ala-Ile-Ala-Gly-peptide on their N-termini, derived from the linker between the protein and the Tev protease recognition site. Recombinant LigF1 was purified as previously described (Gall and Ralph et al. 2014).
Kinetics of the enzymatic cleavage of β(R)-MPHPV. Various concentrations of racemic MPHPV (equal amounts of the β(S)- and β(R)-stereoisomers) were combined with 5 mM GSH in RB. At time zero, 100 μL of a given enzyme in RB+5 mM GSH was combined with 1000 μL of the racemic MPHPV/GSH sample at 25° C. (both samples were equilibrated to 25° C. before mixing). Final concentrations of β(R)-MPHPV in each reaction were 0.0045, 0.010, 0.017, 0.068, or 0.13 mM. […] At specified time points, 200 μL of a reaction was removed and combined with 40 μL of 1 M HCl (Acros Organics) to stop the reaction before HPLC analysis to quantify GS-HPV formed. […]
(§2) HPLC analysis. Analysis and quantification of aromatic compounds were performed using an Ultra AQ C18 5 μm column (Restek) attached to a System Gold HPLC (Beckman Coulter) with running buffers and methods described in Example 1. The eluent was analyzed for light absorbance between 191 and 600 nm, and absorbances at 280 nm were used for quantification of aromatic metabolites by comparing peak areas to those of standards.

[2] = substrate: COc1cc(C(=O)[C@@H](CO)Oc2ccccc2OC)ccc1O; assay: Kinetics of the enzymatic cleavage of β(R)-MPHPV by BaeA (3:N14A); assay type: biochemical, Novosphingobium aromaticivorans; conditions: other: β(R)-MPHPV into GS-HPV, 98 nM dimeric enzyme, 5 mM GSH, pH 8.0, 25° C.
Description: To generate mutant 2:S14A, pVP302K/2873-H2872 was amplified by kinase phosphorylated primers “Saro2872-S14A_R” and “Saro2872-S14A_F”. To generate mutant 3:S15A, pVP302K/H2873-2872 was amplified by kinase phosphorylated primers “Saro2873-S15A_R” and “Saro2873-S15A_F”. To generate mutant 3:N14A, pVP302K/2873-H2872 was amplified by kinase phosphorylated primers “Saro2873-S15A_R” and “Saro2873-N14A_F”. These linear fragments were separately circularized using T4 DNA ligase to generate plasmids pVP302K/2873-H2872(S14A), pVP302K/H2873(S15A)-2872, and pVP302K/2873(N14A)-H2872, respectively.
as §1
Kinetics of the enzymatic cleavage of β(R)-MPHPV. Various concentrations of racemic MPHPV (equal amounts of the β(S)- and β(R)-stereoisomers) were combined with 5 mM GSH in RB. […] At specified time points, 200 μL of a reaction was removed and combined with 40 μL of 1 M HCl (Acros Organics) to stop the reaction before HPLC analysis to quantify GS-HPV formed. […]
as §2

[3] = substrate: COc1cc(C(=O)[C@@H](CO)SC[C@H](NC(=O)CC[C@H](N)C(=O)O)C(=O)NCC(=O)O)ccc1O; assay: Kinetics of GS-HPV cleavage into HPV by NaGSTNu; assay type: biochemical, Novosphingobium aromaticivorans DSM 12444; conditions: other: GS-HPV into HPV, 8 nM enzyme, GSH, pH 8.5, 25° C.
Description: (§3) Enzyme purifications. Genes Saro_2595, E. coli yghU, E. coli yfcG, and SLG_04120 from Sphingobium sp. SYK-6 (codon-optimized for expression in E. coli) were individually cloned into plasmid pVP302K (Gall and Ralph et al. 2014) so that transcripts from the plasmids would be translated into proteins containing a His8-tag connected to the N-terminus via a tobacco etch virus (TEV) protease recognition site. Recombinant proteins were expressed in E. coli B834 (Wood 1966, Doherty et al. 1995) containing plasmid pRARE2 (Novagen, Madison, Wis.) grown for ˜24 h at 27° C. in ZYM-5052 Autoinduction Medium (Studier 2005) containing kanamycin and chloramphenicol. Recombinant proteins were purified essentially as described previously (Gall and Kim et al. 2014); see below for modifications to the procedure. After removal of His8-tags using TEV protease, recombinant proteins retained a Ser-Ala-Ile-Ala-Gly-peptide on their N-termini, derived from the linker between the protein and the TEV protease recognition site. Recombinant LigE and LigF1 from N. aromaticivorans were purified as previously described (Gall and Ralph et al. 2014).
(§4) Kinetics analysis of GS-HPV cleavage. The Reaction Buffer (RB) consisted of 25 mM Tris-HCl (pH 8.5) and 25 mM NaCl. The β(R)- and β(S)-stereoisomers of GS-HPV were separately generated by incubating racemic MPHPV (0.46 mM) in RB with 5 mM reduced glutathione (GSH) and either 38 μg/mL LigF1 or 36 μg/mL LigE, respectively, for several h. This sample, containing a single GS-HPV stereoisomer, guaiacol, and the unreacted MPHPV stereoisomer, was diluted with RB to achieve the desired concentration of GS-HPV for the time course reaction (0.005, 0.011, 0.022, 0.096, or 0.193 mM). An additional 5 mM GSH (dissolved in RB) was added prior to initiation of each time course. At time zero, 100 μL of the indicated enzyme sample (resuspended in RB) was combined with 1800 μL of the diluted GS-HPV reaction mixture to achieve final concentrations of 8 nM NaGSTNu, 195 nM ecYghU, 195 nM ecYfcG, or 47 nM (for β(R)-GS-HPV reactions) or 18 nM (for β(S)-GS-HPV reactions) SYK6GSTNu. Assays were performed at 25° C., and at specified time points, 300 μL of the reaction was removed and combined with 100 μL 1 M HCl (Acros Organics; Geel, Belgium) to stop the reaction before HPLC analysis to quantify HPV formed.
(§5) HPLC analysis. After extracellular aromatics were identified using LC-MS, routine analysis and quantification of aromatics were performed using an Ultra AQ C18 5 μm column (Restek, Bellefonte, Pa.) attached to a System Gold HPLC (Beckman Coulter, Brea, Calif.) with running buffers and chromatography conditions described in FIG. 14. The eluent was analyzed for light absorbance between 191 and 600 nm, and absorbances at 280 nm were used for quantification of aromatic metabolites by comparing peak areas to those of standards (retention times of measured metabolites are shown in FIG. 15).

[4] = substrate: COc1cc(C(=O)[C@H](CO)SC[C@H](NC(=O)CC[C@H](N)C(=O)O)C(=O)NCC(=O)O)ccc1O; assay: Kinetics of GS-HPV cleavage into HPV by NaGSTNu; assay type: biochemical, Novosphingobium aromaticivorans DSM 12444; conditions: other: GS-HPV into HPV, 8 nM enzyme, GSH, pH 8.5, 25° C.
Description: as §3, §4, §5

[5] = substrate: COc1cc(C(=O)[C@@H](CO)SC[C@H](NC(=O)CC[C@H](N)C(=O)O)C(=O)NCC(=O)O)ccc1O; assay: Kinetics of GS-HPV cleavage into HPV by ecYfcG; assay type: biochemical, Escherichia coli DH5α; conditions: other: GS-HPV into HPV, 195 nM enzyme, GSH, pH 8.5, 25° C.
Description: as §3, §4, §5

[6] = substrate: COc1cc(C(=O)[C@H](CO)SC[C@H](NC(=O)CC[C@H](N)C(=O)O)C(=O)NCC(=O)O)ccc1O; assay: Kinetics of GS-HPV cleavage into HPV by ecYfcG; assay type: biochemical, Escherichia coli DH5α; conditions: other: GS-HPV into HPV, 195 nM enzyme, GSH, pH 8.5, 25° C.
Description: as §3, §4, §5

[7] = Kinetics of GS-HPV cleavage, comparisons between enzymes over both stereoisomers; assay type: biochemical
Protocol: as §4, §5

[8] = substrate: COc1cc(C(=O)[C@@H](CO)SC[C@H](NC(=O)CC[C@H](N)C(=O)O)C(=O)NCC(=O)O)ccc1O; assay: Kinetics of GS-HPV cleavage into HPV by ecYghU; assay type: biochemical, Escherichia coli DH5α; conditions: other: GS-HPV into HPV, 195 nM enzyme, GSH, pH 8.5, 25° C.
Description: as §3, §4, §5

[9] = substrate: COc1cc(C(=O)[C@H](CO)SC[C@H](NC(=O)CC[C@H](N)C(=O)O)C(=O)NCC(=O)O)ccc1O; assay: Kinetics of GS-HPV cleavage into HPV by ecYghU; assay type: biochemical, Escherichia coli DH5α; conditions: other: GS-HPV into HPV, 195 nM enzyme, GSH, pH 8.5, 25° C.
Description: as §3, §4, §5

B1: Novosphingobium aromaticivorans BaeA (Saro_2872/Saro_2873 heterodimer, SEQ ID NO:40/SEQ ID NO:42) variant 2:S14A/3:S15A (Ser14 of Saro_2872 and Ser15 of … (protein)
chain 1: MSALLYHGEPNGAALTVLAALAETGLDIECRRIDLLAGERHSLPGIVDPVALDLSIEGEGPVLVIDGEAMTESVFLAQYLDEAAGGVGLQPTDAYARWEMMMWCRQITERLSPAAALLGNLATSQSAIAAIPAEDFAILAARIVSDDLRERWQALNDDAVNAAQVADSETKVAAAVDRCEKQLGDGREWLMGTFSIADLVTYSWLAGMEPLRPAAFADAPLVKAWLARTAARPCVQAALARATISEPLRAWAPGPEINRWG
chain 2: MDEVSLYHWEPNANAGKPMLALMEKGVPFSSHYIDMLQFDQHKPEYLAINPQGTIPAMTHNGQVLTESTAIMEYVNDRFDGPDLMPADAQDRWRVRWWMKFMDQWLGPSFSMIGWSVFVGPMVRQRDPAELAAAIDRIPLPERRTAWRKAINGDFSESEMAESRRRVGLGIAKLEEELGKRPYVGSNQYSLADINIFNSTYSLPISQPDLAGKDRTPNIMRWLKRVYTREAVKKTWAMGKTDLAHRYGLIMAEIEG
notes: His8 tag removed by TEV
[1]
  Km: 120 ± 30 µM
  kcat: 2.8 ± 0.5 s⁻¹
  kcat/Km: 23000 ± 8000 M⁻¹ s⁻¹

B2: Novosphingobium aromaticivorans BaeA (Saro_2872/Saro_2873 heterodimer, SEQ ID NO:40/SEQ ID NO:42) variant 3:N14A (Asn14 of Saro_2873 to Ala) (Novosphingobium … (protein)
chain 1: B1 chain 1 with A14S
chain 2: B1 chain 2 with N14A, A15S
notes: His8 tag on Saro_2872 removed by TEV
[2]
  Km: 250 ± 60 µM
  kcat: 0.14 ± 0.02 s⁻¹
  kcat/Km: 500 ± 200 M⁻¹ s⁻¹

B3: Novosphingobium aromaticivorans DSM 12444 NaGSTNu (Saro_2595), Nu-class glutathione-S-transferase, wild type, SEQ ID NO:18; recombinant, residues 21-313 of SEQ … (protein)
chain: MSSEYVPPKVWKWDKANGGAFASVNRPVAGPTSERELPVGKHPFQVYSLGTPNGQKATIMLEELLQLGFSEAEYDAWLIKIFEGDQFTSGFVDINPNSKIPAMVDRSGPEPFRVFESGAILMHLAEKFGVFLPTSGPARAECLSWLFWQVGSAPFIGGGFGHFYNYAPIKIEYAIDRYAMETKRLFDVANRRLAESRYLAGDEYTIADLATYTWFGNIYRGEAYGEAATFLSMHEYEHVGRWVGEIDARPGVLRGRLVNSSKGLAERHDASDFDALPPESLQAIVKGF
notes: E. coli B834
[3]
  Km: 40 µM
  kcat: 80 s⁻¹
  kcat/Km: 1.9e+06 M⁻¹ s⁻¹
[4]
  Km: 8 µM
  kcat: 57 s⁻¹
  kcat/Km: 8e+06 M⁻¹ s⁻¹

B4: Escherichia coli ecYfcG, Nu-class glutathione-S-transferase, wild type, SEQ ID NO:30 (Escherichia coli K-12) (protein)
chain: MIDLYFAPTPNGHKITLFLEEAELDYRLIKVDLGKGGQFRPEFLRISPNNKIPAIVDHSPADGGEPLSLFESGAILLYLAEKTGLFLSHETRERAATLQWLFWQVGGLGPMLGQNHHFNHAAPQTIPYAIERYQVETQRLYHVLNKRLENSPWLGGENYSIADIACWPWVNAWTRQRIDLAMYPAVKNWHERIRSRPATGQALLKAQLGDERSDS
notes: E. coli B834
[5]
  Km: 160 µM
  kcat: 0.04 s⁻¹
  kcat/Km: 200 M⁻¹ s⁻¹
[6]
  Km: 130 µM
  kcat: 0.017 s⁻¹
  kcat/Km: 140 M⁻¹ s⁻¹

B5: ecYfcG: Nu-class GST from Escherichia coli DH5a, SEQ ID NO:30 (protein, listed as Escherichia coli)
chain: B4 chain
[7]
  KM, fold higher than those of ecYghU: ~10 fold
  kcat, fold lower than those of ecYghU: ~10 fold
  kcat/KM with GS-HPV, fold lower than for ecYghU: ~100 fold
  kcat/KM with GS-HPV, fold lower than those of NaGSTNu: ~10^4 fold

B6: Escherichia coli ecYghU, Nu-class glutathione-S-transferase, wild type, SEQ ID NO:26; recombinant, residues 21-313 of SEQ ID NO:28 (Escherichia coli K-12) (protein)
chain: MTDNTYQPAKVWTWDKSAGGAFANINRPVSGPTHEKTLPVGKHPLQLYSLGTPNGQKVTIMLEELLALGVTGAEYDAWLIRIGDGDQFSSGFVEVNPNSKIPALRDHTHNPPIRVFESGSILLYLAEKFGYFLPQDLAKRTETMNWLFWLQGAAPFLGGGFGHFYHYAPVKIEYAINRFTMEAKRLLDVLDKQLAQHKFVAGDEYTIADMAIWPWFGNVVLGGVYDAAEFLDAGSYKHVQRWAKEVGERPAVKRGRIVNRTNGPLNEQLHERHDASDFETNTEDKRQG
notes: E. coli B834
[7]
  kcat/KM with GS-HPV, fold lower than those of NaGSTNu: ~100 fold
[8]
  Km: 28 µM
  kcat: 0.43 s⁻¹
  kcat/Km: 16000 M⁻¹ s⁻¹
[9]
  Km: 12 µM
  kcat: 0.29 s⁻¹
  kcat/Km: 24000 M⁻¹ s⁻¹
